Reference: paper PMC6319338, “Insight into the PTEN – p85α interaction and lipid binding properties of the p85α BH domain” (Oncotarget, 2018)

Target: T1, purified p85α wild type (cleaved from GST) (bovine, UniProt P23727 1-724)
T1 construct: p85α (PI3K regulatory subunit alpha), bovine, residues 1-724; also called wild type p85α; source: E. coli, expressed as GST fusion, cleaved from GST, purified; not shown: GST, N-terminal, cleaved
Assay: pull-down; GST-PTEN (wild type or mutant; 5 μg) immobilized on glutathione Sepharose beads; precleared purified p85α cleaved from GST (5 μg in 1% milk, 500 μl PBS pH 7.3); 30 minutes at room temperature; 5 washes; anti-p85α immunoblot, quantified with Odyssey software
Settings: both partners purified

B1: GST-PTEN wild type (1–403) (natural protein)
chain: not shown
notes: PTEN, human, residues 1-403 (74 kDa as GST fusion); vector pGEX6P1; The activity assay used His6-PTEN instead; also called wild type PTEN; source: E. coli, GST fusion immobilized on glutathione Sepharose beads
binding result: binds
